Experimental data taken from patent US20030195154A1.

Biological target: soluble human myeloproliferative leukemia (MPL) receptor (human) (UniProt P40238)
Assay: BIAcore competition: test protein preincubated with 5 nM MPL receptor, passed over Fc-TMP on protein G chip
Design: unit not given here

Chain of UniProt P40238 (P40238 26-491 limits assumed): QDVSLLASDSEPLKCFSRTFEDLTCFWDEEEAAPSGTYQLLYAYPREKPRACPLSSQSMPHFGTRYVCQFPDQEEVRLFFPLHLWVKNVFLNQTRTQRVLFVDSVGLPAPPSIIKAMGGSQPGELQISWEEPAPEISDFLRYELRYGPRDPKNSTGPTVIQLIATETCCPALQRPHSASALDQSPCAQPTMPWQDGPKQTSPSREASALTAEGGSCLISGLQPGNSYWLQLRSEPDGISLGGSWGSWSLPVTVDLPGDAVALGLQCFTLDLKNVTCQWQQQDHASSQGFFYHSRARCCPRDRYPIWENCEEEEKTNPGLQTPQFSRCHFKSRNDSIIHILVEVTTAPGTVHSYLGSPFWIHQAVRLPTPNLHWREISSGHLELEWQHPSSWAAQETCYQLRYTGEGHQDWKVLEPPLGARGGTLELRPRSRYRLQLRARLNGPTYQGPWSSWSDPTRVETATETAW

affinity: 3.28 to 5.37
Substance: TMP sequence fused to the carboxy-terminus of human immunoglobulin Fc (Fc-TMP) (Fc fusion)
